Data: PMC3919030

Columns and labels:
[1] = target: Acidianus hospitalis Vps4 (AhosVps4, wild type, full length) (Acidianus hospitalis); test: SEC
[2] = target: Vps4p (Saccharomyces cerevisiae) (UniProt P52917); conditions: cited from earlier work
Chain of Vps4p (Saccharomyces cerevisiae) (P52917 whole entry): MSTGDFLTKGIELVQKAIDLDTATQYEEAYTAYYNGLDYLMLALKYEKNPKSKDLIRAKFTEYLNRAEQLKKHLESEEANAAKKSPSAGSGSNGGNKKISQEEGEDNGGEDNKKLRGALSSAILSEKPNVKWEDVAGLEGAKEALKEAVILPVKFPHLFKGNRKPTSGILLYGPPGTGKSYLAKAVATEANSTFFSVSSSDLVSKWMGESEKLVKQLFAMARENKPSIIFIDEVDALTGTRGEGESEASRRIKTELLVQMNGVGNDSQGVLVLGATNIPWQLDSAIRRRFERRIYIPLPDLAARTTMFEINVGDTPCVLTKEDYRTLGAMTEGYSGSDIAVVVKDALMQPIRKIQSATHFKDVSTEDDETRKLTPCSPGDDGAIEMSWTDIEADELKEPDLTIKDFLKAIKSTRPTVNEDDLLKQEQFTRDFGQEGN

Chain of Vta1p (Q06263 whole entry): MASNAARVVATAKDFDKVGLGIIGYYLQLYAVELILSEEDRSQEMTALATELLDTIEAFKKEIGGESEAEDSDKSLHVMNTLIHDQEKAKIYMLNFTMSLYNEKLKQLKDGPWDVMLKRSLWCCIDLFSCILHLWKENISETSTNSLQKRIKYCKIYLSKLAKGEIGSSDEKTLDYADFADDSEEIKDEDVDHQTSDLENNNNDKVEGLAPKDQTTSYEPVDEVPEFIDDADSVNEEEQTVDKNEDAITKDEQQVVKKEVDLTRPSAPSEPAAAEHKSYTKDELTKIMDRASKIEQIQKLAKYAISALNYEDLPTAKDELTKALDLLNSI

stoichiometry N [1] | Substance | Kd [2] [µM]
6 | Acidianus hospitalis Vps4 (AhosVps4, wild type, full length) (enzyme) | 
 | Vta1p (from UniProt Q06263) | 17
